According to publication PMC7379371:

Assays:
[1] = target: chimeric antibody I3.1 Fab (human); assay: BLI; fortéBIO BLItz; Fab (0.2 mg/mL) immobilised on Anti-Human Fab-CH1 second generation biosensors; gp120 core in solution at three or more concentrations (9.6 to 110 μM); 10 mM Tris, pH 7.5, 100 mM NaCl; global fit of at least three measurements
[2] = target: chimeric antibody I3.1 Fab (human); assay: BLI; […]; Fab (0.2 mg/mL) […] (9.6 to 110 μM); 10 mM Tris, pH 7.5, 100 mM NaCl; […]

Sequence of chimeric antibody I3.1 Fab (human) (heavy, as listed by the source, chain 1 of 2): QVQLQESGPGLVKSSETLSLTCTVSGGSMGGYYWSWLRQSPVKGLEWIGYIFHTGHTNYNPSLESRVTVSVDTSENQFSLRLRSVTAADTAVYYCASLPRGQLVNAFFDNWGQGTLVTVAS
Sequence of chimeric antibody I3.1 Fab (human) (light, as listed by the source, chain 2 of 2): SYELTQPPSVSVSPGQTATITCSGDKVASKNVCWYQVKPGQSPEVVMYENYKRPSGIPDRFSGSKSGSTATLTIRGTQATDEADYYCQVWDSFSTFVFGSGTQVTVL

Row | Substance | Kd [1] [nM] | Kd [2] [nM]
1 | 92UG037.8 gp120 core WT (domain or fragment) | 3280 | –
2 | CH505 T/F gp120 core WT (domain or fragment) | – | 1980
